# Assay results published in the supplement of paper PMC10567573.
# B1: TRPA1 addL (peptide)
# chain: EQRNSRWNTVLRAVKAKTHHLEPL
# B2: POLD2 addL (peptide)
# chain: CQPISFSGFGAEDDDLGGLGLGPL
# B3: PSMB5 addL (peptide)
# chain: DGWIRVSSDNVADLHEKYSGSTPL
# B4: SNF8 addL (peptide)
# chain: LPALFTDLYSQEITAEEAREALPL
# Test: protein stability index of a GFP-peptide fusion (GPS, HEK-293T) (PSI 1-6); higher = more stable
# Conditions: c terminus: native
# 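Note: lentivirally expressed fusion library, cells FACS-sorted into six equal-sized GFP/DsRed ratio bins, PSI computed from sequencing read fractions per bin weighted by bin number.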
protein,measurement,setting,value
B1,protein stability index,parent: NP_015628.1,4.2
B2,protein stability index,parent: NP_006221.1,2.66
B3,protein stability index,parent: NP_002788.1,3.47
B4,protein stability index,parent: NP_009172.2,3.71
